Target: FcRn
Test: BIAcore at pH 6.0

| Kd [nM] | Substance |
| --- | --- |
| 1640 | wild-type irrelevant IgG1 (antibody) |
| 3640 | wild-type irrelevant IgG4 (antibody) |

Reference: patent US20230183339A1
